This test concerns the target PDGFRα/PDGFRβ. As to the kind of experiment: cell-based or functional assay.

The values that follow come from US20170275357A1.

B1: α/βVCV2 IgG1.1 (bispecific antibody)
heavy: EVQLVESGGGLVKPGGSLKLSCAASGFAFSSYAMSWVRQSPEKRLEWVATISSGGHYTFYPDSVKGRFTISRDNAKNTLYLQMSSLRSEDTAIYYCARRYYALDYWGQGTSVTVSSASTKGPSVFPLAPSSKSTSGGTAALGCLVKDYFPEPVTVSWNSGALTSGVHTFPAVLQSSGLYSLSSVVTVPSSSLGTQTYICNVNHKPSNTKVDKKVEPKSCGGGGSGGGGSEVQLQQSGPELVKTGASVKISCKASGYSFINHYMNWVKQSRGKSLEWIGYVSCYNGATGYNQKFKDKATFTVDTSSSTAYMQFNNLTSEDSAVYYCARRGFMEAMDYWGQGTSVTVSSEPKSSDKTHTCPPCPAPEAEGAPSVFLFPPKPKDTLMISRTPEVTCVVVDVSHEDPEVKFNWYVDGVEVHNAKTKPREEQYNSTYRVVSVLTVLHQDWLNGKEYKCKVSNKALPSSIEKTISKAKGQPREPQVYTLPPSRDELTKNQVSLTCLVKGFYPSDIAVEWESNGQPENNYKTTPPVLDSDGSFFLYSKLTVDKSRWQQGNVFSCSVMHEALHNHYTQKSLSLSPGK
light: DIVMTQSQKFMSTSLGDRVSVSCKASQNVLTNVAWYQQKPGQSPKTLIYSASYRYSGVPDRFTGSGSGTDFTLTISIVQSEDLAEYFCQQYNIYPWTFGGGTKLEIKRTVAAPSVFIFPPSDEQLKSGTASVVCLLNNFYPREAKVQWKVDNALQSGNSQESVTEQDSKDSTYSLSSTLTLSKADYEKHKVYACEVTHQGLSSPVTKSFNRGECGGGGSGGGGSDIVMTQSPFSLTVTVGEKVTMSCKSSQSLLNSRTRKNYLAWYQQKPGQSPKLLIYWASTRESGVPDRFTGSGSGTDFTLTISSVQAEDLAVYYCKQSYNLYTFGGGTKLEIK
For the molecule B1, the % Inhibition of PDGFC-induced NHLF proliferation was 70% and the % Inhibition of PDGFD-induced NHLF proliferation amounted to 100%.
